According to paper PMC9701220, “Molecular basis for glycan recognition and reaction priming of eukaryotic oligosaccharyltransferase” (Nature Communications, 2022):
The star is where a group is joined. 5‑TAMRA = CN(C)c1ccc2c(-c3ccc(C(=O)*)cc3C(=O)[O-])c3ccc(N(C)C)cc3[o+]c2c1

Legend:
Conditions in all cases: both partners purified
[1] = biological target: T1, S. cerevisiae oligosaccharyltransferase (OST) complex, OST3-containing (S. cerevisiae, UniProt P39007 1-718; P41543 23-476; Q92316 1-86; P48439 23-350; Q99380 1-36; P46964 …); test: cryo-EM structure; digitonin-purified OST 18 uM incubated with 500 uM TAMRA-YANATS peptide for 15 min before vitrification, no LLO; the sample gave two states, peptide-bound (2.8 A) and apo (2.9 A)
T1 construct: STT3, catalytic subunit of S. cerevisiae OST; OST1, subunit of S. cerevisiae OST (subcomplex I); OST5, subunit of S. cerevisiae OST (subcomplex I); OST3, oxidoreductase subunit of S. cerevisiae OST (subcomplex II); expressed from the plasmid YEp352-OST3 in an ost6 deletion strain; OST4, subunit of S. cerevisiae OST (subcomplex II); genomic OST4-1D4; OST2, subunit of S. cerevisiae OST (subcomplex …)

[2] = biological target: T2, WBP1, subunit of S. cerevisiae OST (S. cerevisiae, UniProt P33767 21-430); test: cryo-EM structure; nanodisc-reconstituted OST 2.5 uM incubated with 7.5 uM Dol20-PP-GlcNAc2Man9Glc3 and 500 uM TAMRA-YA(Dab)ATS peptide for 15 min before vitrification; MnCl2 present; the sample gave two states, LLO-bound (3.0 A) and ternary complex (3.1 A)
T2 construct: WBP1, non-catalytic subunit of S. cerevisiae OST; Stood in the assay within the whole OST complex; also called WPB1; source: S. cerevisiae, as a subunit of the purified OST complex (Rho-1D4 antibody Sepharose through OST4-1D4, SEC)
T2 sequence (looked up): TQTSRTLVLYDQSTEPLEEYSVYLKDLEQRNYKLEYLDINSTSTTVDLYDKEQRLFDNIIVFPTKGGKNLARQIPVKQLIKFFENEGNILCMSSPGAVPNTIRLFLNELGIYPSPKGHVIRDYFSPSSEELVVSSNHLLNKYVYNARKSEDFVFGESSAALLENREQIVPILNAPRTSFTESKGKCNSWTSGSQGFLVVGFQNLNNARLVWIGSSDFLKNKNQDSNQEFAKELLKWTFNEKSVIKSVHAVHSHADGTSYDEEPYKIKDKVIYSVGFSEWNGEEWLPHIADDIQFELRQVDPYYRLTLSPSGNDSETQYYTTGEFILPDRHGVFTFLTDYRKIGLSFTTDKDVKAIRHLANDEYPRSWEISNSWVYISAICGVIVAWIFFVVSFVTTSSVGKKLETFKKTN

[3] = biological target: T3, STT3, catalytic subunit of S. cerevisiae OST (S. cerevisiae, UniProt P39007 1-718); test: as above
T3 construct: STT3, catalytic subunit of S. cerevisiae OST; Stood in the assay within the whole OST complex; also called S.c; STT3; source: S. cerevisiae, as a subunit of the purified OST complex (Rho-1D4 antibody Sepharose through OST4-1D4, SEC)
T3 sequence: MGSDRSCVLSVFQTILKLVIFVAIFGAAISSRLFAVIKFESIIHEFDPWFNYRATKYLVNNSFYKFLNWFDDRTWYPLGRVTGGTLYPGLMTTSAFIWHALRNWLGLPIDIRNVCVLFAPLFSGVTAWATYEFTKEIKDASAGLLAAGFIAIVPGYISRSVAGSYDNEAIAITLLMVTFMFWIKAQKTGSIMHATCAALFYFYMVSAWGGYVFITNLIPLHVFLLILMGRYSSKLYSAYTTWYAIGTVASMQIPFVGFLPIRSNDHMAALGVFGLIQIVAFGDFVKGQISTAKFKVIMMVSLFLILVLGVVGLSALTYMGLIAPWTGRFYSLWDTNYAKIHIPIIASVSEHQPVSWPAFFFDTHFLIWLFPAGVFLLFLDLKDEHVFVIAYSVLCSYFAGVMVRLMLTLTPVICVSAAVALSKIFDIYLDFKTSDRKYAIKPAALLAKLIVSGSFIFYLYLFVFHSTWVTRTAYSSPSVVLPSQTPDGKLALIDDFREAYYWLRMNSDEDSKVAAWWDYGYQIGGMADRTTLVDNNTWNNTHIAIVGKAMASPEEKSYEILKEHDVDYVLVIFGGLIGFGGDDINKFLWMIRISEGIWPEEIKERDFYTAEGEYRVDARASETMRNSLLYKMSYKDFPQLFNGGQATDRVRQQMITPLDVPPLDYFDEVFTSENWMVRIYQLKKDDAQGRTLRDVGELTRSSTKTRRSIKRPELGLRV

T1 sequence (P41543 23-476, chain 2 of 4): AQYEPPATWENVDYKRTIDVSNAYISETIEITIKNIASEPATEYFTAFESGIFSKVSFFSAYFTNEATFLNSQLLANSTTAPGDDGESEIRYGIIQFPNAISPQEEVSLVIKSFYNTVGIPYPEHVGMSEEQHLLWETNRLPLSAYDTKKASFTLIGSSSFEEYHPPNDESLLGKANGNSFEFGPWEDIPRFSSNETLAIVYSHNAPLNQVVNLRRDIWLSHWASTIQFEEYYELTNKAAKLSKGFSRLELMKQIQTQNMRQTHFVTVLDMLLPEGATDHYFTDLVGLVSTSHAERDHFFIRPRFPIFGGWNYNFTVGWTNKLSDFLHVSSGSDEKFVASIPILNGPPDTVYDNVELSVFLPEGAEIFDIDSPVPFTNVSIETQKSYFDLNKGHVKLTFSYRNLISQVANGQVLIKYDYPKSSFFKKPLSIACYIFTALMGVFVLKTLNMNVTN
T1 sequence (Q92316 whole entry, chain 3 of 4): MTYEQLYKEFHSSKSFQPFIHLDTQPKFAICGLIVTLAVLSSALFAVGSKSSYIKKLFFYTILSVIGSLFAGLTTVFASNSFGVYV
T1 sequence (Q99380 whole entry, chain 5 of 4): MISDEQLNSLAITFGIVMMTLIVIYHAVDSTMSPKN
T1 sequence (Q02795 20-286, chain 8 of 4, further chain): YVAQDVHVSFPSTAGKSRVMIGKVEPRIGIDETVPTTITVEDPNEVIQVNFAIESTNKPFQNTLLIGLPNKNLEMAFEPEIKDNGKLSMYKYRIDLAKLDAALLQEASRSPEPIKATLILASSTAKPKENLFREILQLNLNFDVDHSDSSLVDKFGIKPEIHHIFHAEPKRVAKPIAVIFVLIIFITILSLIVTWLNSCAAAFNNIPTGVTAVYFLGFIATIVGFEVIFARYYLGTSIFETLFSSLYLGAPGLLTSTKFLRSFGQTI

B1: TAMRA-YANATS-NH2 (peptide)
peptide: {5‑TAMRA}-YANATS-NH2
SMILES: C[C@H](NC(=O)[C@H](Cc1ccc(O)cc1)NC(=O)c1ccc(-c2c3ccc(N(C)C)cc3[o+]c3cc(N(C)C)ccc23)c(C(=O)[O-])c1)C(=O)N[C@@H](CC(N)=O)C(=O)N[C@@H](C)C(=O)N[C@H](C(=O)N[C@@H](CO)C(N)=O)[C@@H](C)O
notes: acceptor substrate of OST; also called 5-TAMRA-YANATS; reactive peptide; source: bought: Genscript
[1]
  binding result: binds

B2: OST2, subunit of S. cerevisiae OST (natural protein)
chain: MAKAPKANTPKVTSTSSAVLTDFQETFKTSKRAYFAQIEKYPKLKLIDTFCFFLVLLGVIQCTFIILIRDNFPFNAFLAGFIICVGQFVLLMSLRLQLCNSFPGISKNRAFAEFIVASLILHFVCLHFIN
notes: OST2, non-catalytic subunit of S. cerevisiae OST; Stood in the assay within the whole OST complex; source: S. cerevisiae, as a subunit of the purified OST complex (Rho-1D4 antibody Sepharose through OST4-1D4, SEC)
[2]
  binding result: binds

B3: OST3, subunit of S. cerevisiae OST (natural protein, UniProt P48439 23-350, looked up)
chain: MSSNRLLKLANKSPKKIIPLKDSSFENILAPPHENAYIVALFTATAPEIGCSLCLELESEYDTIVASWFDDHPDAKSSNSDTSIFFTKVNLEDPSKTIPKAFQFFQLNNVPRLFIFKPNSPSILDHSVISISTDTGSERMKQIIQAIKQFSQVNDFSLHLPMDWTPIITSTIITFITVLLFKKQSKLMFSIISSRIIWATLSTFFIICMISAYMFNQIRNTQLAGVGPKGEVMYFLPNEFQHQFAIETQVMVLIYGTLAALVVVLVKGIQFLRSHLYPETKKAYFIDAILASFCALFIYVFFAALTTVFTIKSPAYPFPLLRLSAPFK
notes: OST3, oxidoreductase subunit of S. cerevisiae OST; Stood in the assay within the whole OST complex; source: S. cerevisiae (YEp352-OST3), as a subunit of the purified OST complex (Rho-1D4 antibody Sepharose through OST4-1D4, SEC)
[3]
  binding result: binds
